Measurements published in patent US20110177059A1, “PSA AND KLK2 AS THERAPEUTIC TARGETS AND MOLECULES INHIBITING PSA AND KLK2” (UNIVERSITY OF ROCHESTER, priority 2008, published 2011).

Tested on: LN-PSA cells
Assay: MTT assay with PSA proteinase inhibitor, LN-PSA cells
Format: cell-based, human
Conditions: 1000 ng/ml, vs vehicle 1x PBS
Procedure: Cells of stable transfected LNCaP, CWR22rv1, PC-3 and Du145 sublines were seeded in 24-well tissue culture plates at a density of 5000 cells/well in media containing 10% CD-FBS with 1 nM DHT. At the indicated time points, the medium was replenished and determined cell proliferation by MTT [3-(4,5-dimethylthiazol-2-yl)-2,5-diphenyltetrazolium bromide assay. Serum-free medium containing MTT (0.5 mg/ml, Sigma) was added into each well and after 4 h incubation at 37° C., cellular formazan product was dissolved with acidic isopropanol, and the absorbance at OD595 was measured by spectrophotometry (Beckman Du640B). 6 replicate wells were used for each sample at each time point. a-Antichymotrypsin (MP Biomedicals, Inc) at a concentration of 1000 ng/ml was used in the MTT assay as a PSA proteinase inhibitor to treat the LNCaP cell sublines. LN-PSA, LN-siPSA cells were grown in 100-mm dishes. The cells were digested by trypsin-EDTA, harvested as many as 1×10^6 cells, and fixed them in 70% ethanol at 4° C. After 12 h, cells were centrifuged (1000 g, 7 min, 4° C.), and resuspended in PBS containing 0.05 mg/ml RNase A (Sigma), and then incubated at room temperature for 30min. After washing, the cells were stained with […] propidium iodide, filtered through a […], and analyzed 10,000 cells by flow cytometry (FACSCalibur, BD Company) with MODFIT software (Verity Software House, Inc).

B1: α1-antichymotrypsin: PSA protease inhibitor (MP Biomedicals), used at 1000 ng/ml (protein, UniProt P01011 24-423, looked up)
Alpha-1-antichymotrypsin: HPNSPLDEENLTQENQDRGTHVDLGLASANVDFAFSLYKQLVLKAPDKNVIFSPLSISTALAFLSLGAHNTTLTEILKGLKFNLTETSEAEIHQSFQHLLRTLNQSSDELQLSMGNAMFVKEQLSLLDRFTEDAKRLYGSEAFATDFQDSAAAKKLINDYVKNGTRGKITDLIKDLDSQTMMVLVNYIFFKAKWEMPFDPQDTHQSRFYLSKKKWVMVPMMSLHHLTIPYFRDEELSCTVVELKYTGNASALFILPDQDKMEEVEAMLLPETLKRWRDSLEFREIGELYLPKFSISRDYNLNDILLQLGIEEAFTSKADLSGITGARNLAVSQVVHKAVLDVFEEGTEASAATAVKITLLSALVETRTIVRFNRPFLMIIVPTDTQNIFFMSKVTNPKQA
  PSA-induced cell growth (MTT): limited influence
Listed as ACT
  PSA-induced cell growth (MTT): not significantly changed
